Data set [1] concerns T1, Pro-active peptide (NH2-Cys-Lys-Arg-Val-Lys-TAMRA, SEQ ID NO: 2).
T1 sequence: CKRVK

Data set [2] relates to T2, In-active peptide (NH2-Cys-Lys-Pro-Val-Lys-TAMRA, SEC ID NO: 3).
T2 sequence: CKPVK

As for Trypsin (13.000-20.000 units/mg), in data set [1], the “fluorescence emission of QD660@SiO2@QD540@SiO2 nanoparticles at 25 µg/L versus 350 µg/L trypsin” value is “Increasing the enzyme concentration led to faster recovery of the original emission at 540 nm”; the “fluorescence emission spectra of the one-colour QD540@SiO2 system after incubation with trypsin (loss of FRET on peptide cleavage)” value was “The spectroscopic profiles further demonstrated the existence of FRET processes between the QD540@SiO2 nanospheres and the “pro-active” TAMRA-labelled peptide”; the “ratio of PL emission peaks I540/I660 during enzymatic digestion for 120 minutes at 25-350 µg/L trypsin” value was “There was a direct relationship between the enzymatic digestion rate and the enzyme concentration”. In addition, the “fluorescence emission spectra of the one-colour QD540@SiO2 system after incubation with trypsin” value in data set [2] was “the control sample with the “in-active” QD540@SiO2 system, as expected, did not show any significant change in the fluorescence emission”.
